Measured values published in PMC4168064, “Cosuppression of the chloroplast localized molecular chaperone HSP90.5 impairs plant development and chloroplast biogenesis in Arabidopsis” (BMC Research Notes, 2014).

Molecular target: the molecule itself
Experiment: SEC; Superdex 200 10/30; running buffer 25 mM Tris-HCl pH 8.0, 100 mM NaCl, 10% glycerol; 600 ug of HSP90.5 62-780 or 200 ug of FLAG-tagged HSP90.5 62-780 loaded; fractions analysed by SDS-PAGE

Row | Protein | stoichiometry N
1 | C-terminally FLAG-tagged mature HSP90.5 (HSP90.5 62-780 FLAG), N-terminally His6-tagged (domain or fragment, Arabidopsis thaliana, UniProt Q9SIF2 62-780, looked up, Arabidopsis thaliana chloroplast HSP90.5, predicted mature form, residues 62-780, amplified from pGWB402Ω-HSP90.5FLAG and cloned into pProEXHTb; also called HSP90.5FLAG; FLAG-tagged HSP90.5; source: E. coli, purified (Ni-NTA); not shown: FLAG, C-terminal, kept) DAAVAEKETTEEGSGEKFEYQAEVSRLLDLIVHSLYSHKEVFLRELVSNASDALDKLRFLSVTEPSLLGDGGDLEIRIKPDPDNGTITITDTGIGMTKEELIDCLGTIAQSGTSKFLKALKENKDLGADNGLIGQFGVGFYSAFLVAEKVVVSTKSPKSDKQYVWESVADSSSYLIREETDPDNILRRGTQITLYLREDDKYEFAESTRIKNLVKNYSQFVGFPIYTWQEKSRTIEVEEDEPVKEGEEGEPKKKKTTKTEKYWDWELANETKPLWMRNSKEVEKGEYNEFYKKAFNEFLDPLAHTHFTTEGEVEFRSILYIPGMGPLNNEDVTNPKTKNIRLYVKRVFISDDFDGELFPRYLSFVKGVVDSDDLPLNVSREILQESRIVRIMRKRLIRKTFDMIQEISESENKEDYKKFWENFGRFLKLGCIEDTGNHKRITPLLRFFSSKNEEELTSLDDYIENMGENQKAIYYLATDSLKSAKSAPFLEKLIQKDIEVLYLVEPIDEVAIQNLQTYKEKKFVDISKEDLELGDEDEVKDREAKQEFNLLCDWIKQQLGDKVAKVQVSNRLSSSPCVLVSGKFGWSANMERLMKAQALGDTSSLEFMRGRRILEINPDHPIIKDLNAACKNAPESTEATRVVDLLYDTAIISSGFTPDSPAELGNKIYEMMAMAVGGRWGRVEEEEESSTVNEGDDKSGETEVVEPSEVRAESDPWQD | 2
2 | mature HSP90.5 (HSP90.5 62-780), N-terminally His6-tagged (domain or fragment, Arabidopsis thaliana, UniProt Q9SIF2 62-780, looked up, Arabidopsis thaliana chloroplast HSP90.5, predicted mature form, residues D62-D780, cloned from an HSP90.5 cDNA into the p11 vector; also called wild type HSP90.5; AtHSP90.5; source: E. coli, purified (Ni-NTA)) DAAVAEKETTEEGSGEKFEYQAEVSRLLDLIVHSLYSHKEVFLRELVSNASDALDKLRFLSVTEPSLLGDGGDLEIRIKPDPDNGTITITDTGIGMTKEELIDCLGTIAQSGTSKFLKALKENKDLGADNGLIGQFGVGFYSAFLVAEKVVVSTKSPKSDKQYVWESVADSSSYLIREETDPDNILRRGTQITLYLREDDKYEFAESTRIKNLVKNYSQFVGFPIYTWQEKSRTIEVEEDEPVKEGEEGEPKKKKTTKTEKYWDWELANETKPLWMRNSKEVEKGEYNEFYKKAFNEFLDPLAHTHFTTEGEVEFRSILYIPGMGPLNNEDVTNPKTKNIRLYVKRVFISDDFDGELFPRYLSFVKGVVDSDDLPLNVSREILQESRIVRIMRKRLIRKTFDMIQEISESENKEDYKKFWENFGRFLKLGCIEDTGNHKRITPLLRFFSSKNEEELTSLDDYIENMGENQKAIYYLATDSLKSAKSAPFLEKLIQKDIEVLYLVEPIDEVAIQNLQTYKEKKFVDISKEDLELGDEDEVKDREAKQEFNLLCDWIKQQLGDKVAKVQVSNRLSSSPCVLVSGKFGWSANMERLMKAQALGDTSSLEFMRGRRILEINPDHPIIKDLNAACKNAPESTEATRVVDLLYDTAIISSGFTPDSPAELGNKIYEMMAMAVGGRWGRVEEEEESSTVNEGDDKSGETEVVEPSEVRAESDPWQD | 2
